The source of these data is PMC10602137 (2023).

In test [1] the target is T1, influenza M protein (Influenza A MP54; also given MP74) peptide on HLA-DRA*01:01 / HLA-DRB1*04:01 (human).
T1 peptide: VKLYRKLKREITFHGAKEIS
As to the kind of experiment: proliferation.

Test [2] addresses T2, GAD65 peptide on HLA-DRA*01:01 / HLA-DRB1*04:01 (human).
T2 peptide: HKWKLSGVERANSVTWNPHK
As to the kind of experiment: proliferation.

B1: Clone_566 (TCR)
alpha TRAV29DV5 TRAJ45 CDR3: CAASRYSGGGADGLTF
beta TRBV12-4 TRBJ1-1 CDR3: CASSVQGGNTEAFF
In the case of B1, the binding result in test [1] and in test [2] was “recognises” each time.

B2: P196-1 (TCR)
alpha TRAV29DV5 TRAJ45 CDR3: CAASRYSGGGADGLTF
beta TRBV12-4 TRBJ1-1 CDR3: CASSLQGGNTEAFF
For B2, the binding result in test [1] and in test [2] was “recognises” in each case.

B3: Clone_81 (TCR)
alpha TRAV29DV5 TRAJ45 CDR3: CAASRYSGGGADGLTF
beta TRBV12-4 TRBJ1-1 CDR3: CASSPQGGNTEAFF
With B3, the binding result in test [1] and in test [2] was “recognises” throughout.
